# Experimental data taken from patent US20200179533A1.
# Columns and labels:
# [1] = biological target: PiT-2 receptor (human receptor gene PiT-2, SLC20A2) (human) (UniProt Q08357); experiment: cell-based or functional assay
# [2] = biological target: PiT-2-HA (human) (UniProt Q08357); experiment: cell-based or functional assay
substance,measurement,setting,value
Amphotropic Envelope gene product included in the Reximmune-C1 and 2 retroviral vector,"EGFP+ cells (%) (transduction efficiency, PiT-2-CHO-K1)",[1],34%
same,"EGFP+ cells (%) (transduction efficiency, PiT-2-MIA-PaCa-2)",[1],78.6%
same,"EGFP+ cells (%) (transduction efficiency, PiT-2-RKO)",[1],43.1%
same,"EGFP+ cells (%) (transduction efficiency, PiT-2-HA-HCT-15)",[2],14.9%
